The text below walks through data of paper PMC5929487.

Test [1] has as its target epidermal growth factor receptor (ovine pulmonary artery smooth muscle cells) (ovine (endogenous in PASMC)). Nature of the test: SDS-PAGE and Western blot of SDS-resistant dimer.
Test [2] has as its target epidermal growth factor receptor (rat lung) (rat (endogenous in lung tissue)). Nature of the test: SDS-PAGE and Western blot of SDS-resistant dimer. Background: In western blotting, separated proteins are transferred to a membrane and probed.
Test [3] deals with recombinant human catalase (human) (UniProt P04040). Briefly: native gel or EMSA. A general note: A gel shift assay detects complexes by their altered migration in electrophoresis.
The target is the same in test [4]. Nature of the test: SEC.

Where “and” joins values, the source holds several entries; their conditions need not be identical. Identical values can stand only once.

Usually stoichiometry N stands for a count of units in the complex or per binding partner.

In turn, “epidermal growth factor receptor (ovine pulmonary artery smooth muscle cells)” gave a stoichiometry N in test [1] of 2. In the case of “epidermal growth factor receptor (rat lung)”, in test [2], the stoichiometry N was determined as 2.

As for “recombinant human catalase (from UniProt P04040 1-527) (enzyme)”, the stoichiometry N in test [3] was 4; in test [4], 4 and 3 and 2.
